Measurements taken from the supplement of paper PMC9170038.

System: MS2 coat protein
Assay: apparent KD of MS2 coat protein; designed switch direction (-1 OFF switch, 1 ON switch): -1; higher = weaker reporter binding
Method in brief: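 Designed RNA switches with common flanks were transcribed on Illumina chips by stalled E. coli RNA polymerase and titrated with SNAP-549-labelled MS2 coat protein, from 0.7 or 1.5 nM doubling to 3 µM, in Tris-HCl pH 7.5 buffer with KCl, MgCl2, BSA, DTT, tRNA and Tween-20. Steps lasted 0.8–1.5 h (lowest) to 10–20 min (highest). Titrations ran without input, with 200 uM small-molecule ligand, or with an oligonucleotide input. Normalised cluster fluorescence was curve-fitted, and apparent KD is the per-design median over clusters.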

[1] = Eterna round: R95, input ligand: FMN 200 uM
[2] = Eterna round: R95, input ligand: microRNA oligo, concentration not stated
[3] = Eterna round: R95, input ligand: none
[4] = input ligand: microRNA oligo, concentration not stated

| Sequence | apparent KD of MS2 coat protein [1] [nM] | apparent KD of MS2 coat protein [2] [nM] | apparent KD of MS2 coat protein [3] [nM] | apparent KD of MS2 coat protein (input ligand: FMN 200 uM) [nM] | apparent KD of MS2 coat protein [4] [nM] | apparent KD of MS2 coat protein (input ligand: none) [nM] |
| --- | --- | --- | --- | --- | --- | --- |
| AAAAAGACAGGAUAUACAUGAGGAUCACCCAUGUGAAACAAAAUAAAAUAAAAUAAAAGUAGAAGGGUCAAAAA [Exclusion 3 #2] (puzzle: Exclusion 3) | 33.8 | 31.9 | 31.7 | – | – | – |
| AAAAAGCGAGGAUAUACAGGAAAAGAAAAGAAAAGAAAAGCACAUGAGGAUCACCCAUGUAGAAGGCGCGAAAA [Exclusion 2 #3] (puzzle: Exclusion 2) | 26.1 | 24.7 | 20.8 | – | – | – |
| AAAACACAUGAGGAUCACCCAUGUGAGGAUAUGUUCAUUGUGAGCAAACUUAUGAUGAACAGAAGGCACAUAAA [JR_Exclusion1_Sub017] (puzzle: Exclusion 1) | – | 38.9 | – | – | – | – |
| AAAACGUCAGGAUAUACAGAAGAGAUCACAAAAAAAAAAAAACAUGAGGAUCACCCAUGUAGAAGGGACAAAAA [Ex2 Malc#2] (Eterna round: R96, puzzle: Exclusion 2) | – | – | – | 185 | 81.2 | 115 |
| AAAACUAACACGAAAGUGUUAGAAUAAUAAGCUUGUGGUACAUGAGGAUCACCCAUGUCCUCAUAAGCUCGUCUUAU [Mat - Sensor v3 - Turn-off var 2 - D45] (puzzle: Sensor v3, turn-off variant 2) | 28 | 46.4 | 25.8 | – | – | – |
| AAAACUGGUGUUAGGAUAUUCCUAGGAAAGCUUGGGAAGAAGGGACAUGAGGAUCACCCAUGUCCAGUGAUCAG [Eternabot (Original) Solution 19] (Eterna round: R97, puzzle: Brourd's mod of Exclusion 4) | – | – | – | 19.1 | – | 21.6 |
| AAAAGAGUAGGAUAUCUGACGCGAAACAUGAGGAUCACCCAUGUAGGGCGGUCCUGCUUAAGAGAAGGGCUCUAAU [Arorxebile] (puzzle: Exclusion 5) | 155 | 119 | 164 | – | – | – |
| AAAAGCUCAGUCAGGAUAUGCAUUUGCACCGGCGAGCAGAAGGGACAUGAGGAUCACCCAUGUACGCGGCAGGG [Laaraor] (puzzle: Brourd's mod of Exclusion 4) | 80.8 | 37.1 | 59.9 | – | – | – |
| AAAAGGCAGCAGGAUAUAGUCACCAUCGGGUUGCUAGAAGGGCUAACAUGAGGAUCACCCAUGUGGGUGCAAAA [Soinsoan] (puzzle: Exclusion 6) | 578 | 452 | 667 | – | – | – |
| AAAAUAAAGAUAGGAUAUGCAGUAUAGCAAGAUCCGGACAUGAGGAUCACCCAUGUACUUCGAAAGCAGAAGGAUCAAACAAAA [Zamale] (Eterna round: R96, puzzle: Exclusion NG 2) | – | – | – | 30.3 | 30 | 26.6 |
| AAACACUGAGGAUAUGCAUAACAACAAAGCCUCACGUGCCAACAUGAGGAUCACCCAUGUAGAAGGCAGUCCAA [Mod R3 Insanara 16 - Jieux - Exclusion 2] (Eterna round: R97, puzzle: Exclusion 2) | – | – | – | 25 | – | 30 |
| AAACAGCAAGGAUAUACGGGCAGUGCUUAUCAUAUCAUACAACAUGAGGAUCACCCAUGUAGAAGGUGCAACAA [Ex2 #1] (Eterna round: R97, puzzle: Exclusion 2) | – | – | – | 108 | – | 39.1 |
| AAACCUCACAACCGUUAAAACAUGAGGAUCACCCAUGUGCCGUAACGGCGCAUGGUCGAGCUAGGCUCGUCCAUGCA [Zamacelaso] (Eterna round: R96, puzzle: Sensor v2, turn-off variant) | – | – | – | 12 | 10.2 | 15.4 |
| AAACUGCAUGUGAGGAUAUGCACCGACUAAACCGGGCAGAAGGCACAUGAGGAUCACCCAUGUCAUCCUAUUGC [Beederte] (puzzle: Brourd's mod of Exclusion 4) | – | 7.99 | – | – | – | – |
